Measured values taken from patent US20240261333A1, “NOVEL TARGETS FOR ENHANCING ANTI-TUMOR IMMUNITY” (THE BROAD INSTITUTE, INC., priority 2021, published 2024).

T1: B3GNT2 (Homo sapiens, UniProt Q9NY97)
T1 construct: The respective ORFs of candidate genes [CD274 (NM_014143), MCL1 (NM_021960), JUNB (NM_002229), and B3GNT2 (NM_006577)] were synthesized; expressed in transfected cells; host or cells: A375 melanoma cells (lentiviral ORF overexpression)
T1 sequence (Q9NY97 1-397): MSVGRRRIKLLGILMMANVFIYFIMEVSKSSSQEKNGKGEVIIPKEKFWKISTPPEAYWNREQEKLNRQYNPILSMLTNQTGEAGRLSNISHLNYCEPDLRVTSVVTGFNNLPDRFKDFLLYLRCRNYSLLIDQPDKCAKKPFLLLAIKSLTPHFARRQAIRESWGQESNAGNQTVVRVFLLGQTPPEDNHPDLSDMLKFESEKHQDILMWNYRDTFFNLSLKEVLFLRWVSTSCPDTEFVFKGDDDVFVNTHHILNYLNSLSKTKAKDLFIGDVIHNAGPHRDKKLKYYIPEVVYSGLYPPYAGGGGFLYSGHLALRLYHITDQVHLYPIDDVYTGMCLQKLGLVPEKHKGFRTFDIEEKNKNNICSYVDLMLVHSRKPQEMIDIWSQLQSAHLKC

B1: ATXN2L (protein)
chain: MLKPQPLQQPSQPQQPPPTQQAVARRPPGGTSPPNGGLPGPLATSAAPPGPPAAASPCLGPVAAAGSGLRRGAEGILAPQPPPPQQHQERPGAAAIGSARGQSTGKGPPQSPVFEGVYNNSRMLHFLTAVVGSTCDVKVKNGTTYEGIFKTLSSKFELAVDAVHRKASEPAGGPRREDIVDTMVFKPSDVMLVHFRNVDFNYATKDKFTDSAIAMNSKVNGEHKEKVLQRWEGGDSNSDDYDLESDMSNGWDPNEMFKFNEENYGVKTTYDSSLSSYTVPLEKDNSEEFRQRELRAAQLAREIESSPQYRLRIAMENDDGRTEEEKHSAVQRQGSGRESPSLASREGKYIPLPQRVREGPRGGVRCSSSRGGRPGLSSLPPRGPHHLDNSSPGPGSEARGINGGPSRMSPKAQRPLRGAKTLSSPSNRPSGETSVPPPPAVGRMYPPRSPKSAAPAPISASCPEPPIGSAVPTSSASIPVTSSVSDPGVGSISPASPKISLAPTDVKELSTKEPGRTLEPQELARIAGKVPGLQNEQKRFQLEELRKFGAQFKLQPSSSPENSLDPFPPRILKEEPKGKEKEVDGLLTSEPMGSPVSSKTESVSDKEDKPPLAPSGGTEGPEQPPPPCPSQTGSPPVGLIKGEDKDEGPVAEQVKKSTLNPNAKEFNPTKPLLSVNKSTSTPTSPGPRTHSTPSIPVLTAGQSGLYSPQYISYIPQIHMGPAVQAPQMYPYPVSNSVPGQQGKYRGAKGSLPPQRSDQHQPASAPPMMQAAAAAGPPLVAATPYSSYIPYNPQQFPGQPAMMQPMAHYPSQPVFAPMLQSNPRMLTSGSHPQAIVSSSTPQYPSAEQPTPQALYATVHQSYPHHATQLHAHQPQPATTPTGSQPQSQHAAPSPVQHQAGQAPHLGSGQPQQNLYHPGALTGTPPSLPPGPSAQSPQSSFPQPAAVYAIHHQQLPHGFTNMAHVTQAHVQTGITAAPPPHPGAPHPPQVMLLHPPQSHGGPPQGAVPQSGVPALSASTPSPYPYIGHPQGEQPGQAPGFPGGADDRIREFSLAGGIWHGRAEGLQVGQDARVLGGE
B2: DSTN (protein)
chain: ASGVQVADEVCRIFYDMKVRKCSTPEEIKKRKKAVIFCLSADKKCIIVEEGKEILVGDVGVTITDPFKHFVGMLPEKDCRYALYDASFETKESRKEELMFFLWAPELAPLKSKMIYASSKDAIKKKFQGIKHECQANGPEDLNRACIAEKLGGSLIVAFEGCPV
B3: RARS (protein)
chain: MDVLVSECSARLLQQEEEIKSLTAEIDRLKNCGCLGASPNLEQLQEENLKLKYRLNILRKSLQAERNKPTKNMINIISRLQEVFGHAIKAAYPDLENPPLLVTPSQQAKFGDYQCNSAMGISQMLKTKEQKVNPREIAENITKHLPDNECIEKVEIAGPGFINVHLRKDFVSEQLTSLLVNGVQLPALGENKKVIVDFSSPNIAKEMHVGHLRSTIIGESISRLFEFAGYDVLRLNHVGDWGTQFGMLIAHLQDKFPDYLTVSPPIGDLQVFYKESKKRFDTEEEFKKRAYQCVVLLQGKNPDITKAWKLICDVSRQELNKIYDALDVSLIERGESFYQDRMNDIVKEFEDRGFVQVDDGRKIVFVPGCSIPLTIVKSDGGYTYDTSDLAAIKQRLFEEKADMIIYVVDNGQSVHFQTIFAAAQMIGWYDPKVTRVFHAGFGVVLGEDKKKFKTRSGETVRLMDLLGEGLKRSMDKLKEKERDKVLTAEELNAAQTSVAYGCIKYADLSHNRLNDYIFSFDKMLDDRGNTAAYLLYAFTRIRSIARLANIDEEMLQKAARETKILLDHEKEWKLGRCILRFPEILQKILDDLFLHTLCDYIYELATAFTEFYDSCYCVEKDRQTGKILKVNMWRMLLCEAVAAVMAKGFDILGIKPVQRM
B4: SSR1 (protein)
chain: VLFRGGPRGLLAVAQDLTEDEETVEDSIIEDEDDEAEVEEDEPTDLVEDKEEEDVSGEPEASPSADTTILFVKGEDFPANNIVKFLVGFTNKGTEDFIVESLDASFRYPQDYQFYIQNFTALPLNTVVPPQRQATFEYSFIPAEPMGGRPFGLVINLNYKDLNGNVFQDAVFNQTVTVIEREDGLDGETIFMYMFLAGLGLLVIVGLHQLLESRKRKRPIQKVEMGTSSQNDVDMSWIPQETLNQINKASPRRLPRKRAQKRSVGSDE
B5: DNAJB11 (protein)
chain: GRDFYKILGVPRSASIKDIKKAYRKLALQLHPDRNPDDPQAQEKFQDLGAAYEVLSDSEKRKQYDTYGEEGLKDGHQSSHGDIFSHFFGDFGFMFGGTPRQQDRNIPRGSDIIVDLEVTLEEVYAGNFVEVVRNKPVARQAPGKRKCNCRQEMRTTQLGPGRFQMTQEVVCDECPNVKLVNEERTLEVEIEPGVRDGMEYPFIGEGEPHVDGEPGDLRFRIKVVKHPIFERRGDDLYTNVTISLVESLVGFEMDITHLDGHKVHISRDKITRPGAKLWKKGEGLPNFDNNNIKGSLIITFDVDFPKEQLTEEAREGIKQLLKQGSVQKVYNGLQGY
B6: SPRR2E (protein)
chain: MSYQQQQCKQPCQPPPVCPTPKCPEPCPPPKCPEPCPPPKCPQPCPPQQCQQKCPPVTPSPPCQPKCPPKSK
B7: HNRNPA1 (protein)
chain: SKSESPKEPEQLRKLFIGGLSFETTDESLRSHFEQWGTLTDCVVMRDPNTKRSRGFGFVTYATVEEVDAAMNARPHKVDGRVVEPKRAVSREDSQRPGAHLTVKKIFVGGIKEDTEEHHLRDYFEQYGKIEVIEIMTDRGSGKKRGFAFVTFDDHDSVDKIVIQKYHTVNGHNCEVRKALSKQEMASASSSQRGRSGSGNFGGGRGGGFGGNDNFGRGGNFSGRGGFGGSRGGGGYGGSGDGYNGFGNDGGYGGGGPGYSGGSRGYGSGGQGYGNQGSGYGGSGSYDSYNNGGGGGFGGGSGSNFGGGGSYNDFGNYNNQSSNFGPMKGGNFGGRSSGPYGGGGQYFAKPRNQGGYGGSSSSSSYGSGRRF
B8: SDF4 (protein)
chain: RPANHSSTRERVANREENEILPPDHLNGVKLEMDGHLNRGFHQEVFLGKDLGGFDEDAEPRRSRRKLMVIFSKVDVNTDRKISAKEMQRWIMEKTAEHFQEAMEESKTHFRAVDPDGDGHVSWDEYKVKFLASKGHSEKEVADAIRLNEELKVDEETQEVLENLKDRWYQADSPPADLLLTEEEFLSFLHPEHSRGMLRFMVKEIVRDLDQDGDKQLSVPEFISLPVGTVENQQGQDIDDNWVKDRKKEFEELIDSNHDGIVTAEELESYMDPMNEYNALNEAKQMIAVADENQNHHLEPEEVLKYSEFFTGSKLVDYARSVHEEF

Each molecule was assayed against T1, B3GNT2 (assay: Co-IP of FLAG-tagged B3GNT2 followed by mass spectrometry). Details: Co-IP followed by mass spectrometry of B3GNT2; C-term tag, FLAG pull-down.
Assay type: cell-based
Set-up: C-term IgG / C-term flag: unit not given here
Protocol: Cells were plated in 10-cm cell culture dishes and grown to 60-80% confluency. For each condition, two biological replicates were harvested for co-IP. Cells were washed with PBS and 4 mL of lysis buffer (20 mM HEPES, 1% Triton X-100, 150 mM NaCl, 1 mM EDTA, and 10% glycerol) containing protease inhibitor cocktail was added. Cells were scraped and lysate was incubated at 4° C. under rotary agitation for 1 h. Lysate was centrifuged at 14,000×g for 10 min at 4° C. Supernatant was transferred to a new tube and an aliquot was taken as the input. […] For Western blots, 10 μg/mL Chicken Anti-FLAG (Aves labs ET-DY100) and IgY control (R&D Systems AB-101-C) antibodies were biotinylated (Thermo Fisher Scientific 90407) and added to the respective conditions. Lysates with antibodies were incubated at 4° C. under rotary agitation overnight. For each mL of lysate, 50 μL of Pierce Protein A/G Magnetic Beads (Mass spectrometry; Thermo Fisher Scientific 88803) or Pierce Streptavidin Magnetic Beads (Western blot; Thermo Fisher Scientific 88817) was washed twice with lysis buffer. Lysates with antibodies were added to the beads and incubated at 4° C. under rotary agitation for 4 h. Beads were washed with lysis buffer 3 times and resuspended in lysis buffer for storage. […] This solution was subjected to solid phase extraction to concentrate the peptides and remove unwanted reagents followed by injection onto a Shimadzu HPLC with fraction collector. Eight fractions were collected and after concentration were injected on a Waters NanoAcquity HPLC equipped with a self-packed Aeris 3 μm C18 analytical column 0.075 mm by 20 cm, (Phenomenex). Peptides were eluted using standard reverse-phase gradients. The effluent from the column was analyzed using a Thermo Orbitrap Elite mass spectrometer (nanospray configuration) operated in a data dependent manner for 54 minutes. […] Scaffold Q+S (Proteome Software) was used to provide consensus reports for the identified proteins.

B1 showed a C-term flag of 5.

Same assay, conditions: Co-IP followed by mass spectrometry of B3GNT2; C-term tag, IgG pull-down

In the case of B1, the “C-term IgG” value is reported as 2.

Same assay, conditions: Co-IP followed by mass spectrometry of B3GNT2; N-term tag, FLAG pull-down

In the case of B1, the “N-term FLAG” value is reported as 5.

Same assay, conditions: Co-IP followed by mass spectrometry of B3GNT2; N-term tag, IgG pull-down

B1 was tested, and the “N-term IgG” value was 3.

Same assay, conditions: Co-IP with FLAG antibody, C-terminally FLAG-tagged B3GNT2; mass spectrometry count, unit not given

In order of falling C-term flag:
1. B7  9
2. B8  7
3. B4  4
4. B5  4
5. B2  3
6. B3  2
7. B6  0

Same assay, conditions: Co-IP with FLAG antibody, N-terminally FLAG-tagged B3GNT2; mass spectrometry count, unit not given

In order of falling “N-term FLAG” value:
1. B6  16
2. B7  7
3. B4  3
4. B5  3
5. B2  0
6. B3  0
7. B8  0

Same assay, conditions: Co-IP with IgG control antibody, C-terminally FLAG-tagged B3GNT2; mass spectrometry count, unit not given

In order of falling “C-term IgG” value:
1. B6  5
2. B7  4
3. B2  0
4. B3  0
5. B4  0
6. B5  0
7. B8  0

Same assay, conditions: Co-IP with IgG control antibody, N-terminally FLAG-tagged B3GNT2; mass spectrometry count, unit not given

In order of falling “N-term IgG” value:
1. B7  4
2. B6  3
3. B2  0
4. B3  0
5. B4  0
6. B5  0
7. B8  0
